Laboratory results reported in patent publication US20240293570A1 (priority 2021, published 2024).
Read-outs that look alike come from different tables or passages of the source. *1 amine or outer side, *2 acyl side, *3 side chain or, on linkers, in order; H or OH if unused. Where a SMILES comes first, the peptide text is derived from it. [ ]: non-standard residue; d: D form. The star is where a group is joined. ξ: configuration not given here. Exatecan = CC[C@@]1(O)C(=O)OCc2c1cc1n(c2=O)Cc2c-1nc1cc(F)c(C)c3c1c2[C@@H](N*)CC3; Dolaproine = CO[C@@H]([C@@H]1CCCN1)[C@@H](C)C(=O)O; X2 = CO[C@@H]([C@H]1CCCN1[*:1])[C@@H](C)C(=O)[*:2]; ξDil = CC[C@H](C)C([C@@H](CC(=O)[*:2])OC)N(C)[*:1]; Hexanoyl(6-maleimido) = O=C1C=CC(=O)N1CCCCCC(=O)*; Propanoyl(3-maleimido) = O=C1C=CC(=O)N1CCC(=O)*; Dil = CC[C@H](C)[C@H](NC)[C@@H](CC(=O)O)OC; PABC = O=C(OCc1ccc(N[*:1])cc1)[*:2]; NHCH2OCH2CO = O=C(COCN[*:1])[*:2]; X3 = C[C@@H](N*)[C@@H](O)c1ccccc1; NMeV = CN[C@H](C(=O)O)C(C)C

How the values were obtained:
[1] = format: physicochemical; settings: ADC with Her2 antibody, RP-HPLC-MS
Method: (§1) A drug-antibody conjugating ratio (also known as drug-antibody ratio, abbreviated as DAR) of the antibody-drug conjugate was tested using reversed-phase high-performance liquid chromatography-mass chromatography (RP-HPLC-MS). The ADC sample was diluted with 50 mmol/L Tris buffer (pH 8.0) to 1 mg/ml. A fresh dithiothreitol (DTT) stock solution was added to achieve a final DTT concentration of 50 mmol/L. Incubation was performed at 37° C. for 30 minutes. A PLRP-S chromatographic column (1000 Å pores, 2.1×50 mm, 5) μm) was used, and the column temperature was 70° C. The flow rate was 0.25 mL/min. […] of sample was injected; the mobile phase A was an aqueous solution of 0.1% formic acid (V/V) and 0.025% trifluoroacetic acid (V/V), and the mobile phase B was an acetonitrile solution of 0.1% formic acid (V/V) and 0.025% trifluoroacetic acid (V/V); the running time was 0-3 minutes, where 27% of mobile phase B ran for 3 minutes, and the mobile phase B ran from 27% to 49% within 3-25 minutes, from 49% to 95% within 25-26 minutes, at 95% within […], from 95% to 27% within 30-31.5 minutes, and at 27% for 31.5-45 minutes. […] Mass spectrometry drying gas was at a temperature of 350° C. and a flow rate of 7.0 L/min, the pressure of an atomizer was 40 psi, capillary voltage was positive 3000V and negative 3000V, and the mass range was 500-1600 m/z. The molecular weight of each mass spectrometry peak (ranging from 20000 to 70000) was calculated by deconvolution and compared with light and heavy chain molecular weights of un-conjugated antibodies to calculate a drug load at each peak, so as to determine the load of a corresponding ultraviolet peak. Area percentages of heavy and light chain ultraviolet peaks were calculated through integration, and a weighted average DAR of the antibody-drug conjugate was calculated by combining the area percentages with the drug load distribution of each peak.

[2] = Polymer (high molecular component) content of antibody-drug conjugates by SE-HPLC; format: physicochemical; settings: ADC with Her2 antibody
Method: (§2) Polymers (high molecular components) of the antibody-drug conjugates were tested using molecular exclusion high-performance liquid chromatography (SE-HPLC). A Biocore SEC chromatographic column (7.8×300 mm, […]) was used, and the mobile phase was 50 mM phosphate containing 300 mM sodium chloride (pH 6.8), with a flow rate of 0.5 mL/min. Samples of […] and 10 μl were injected. […] The polymer content of an antibody-drug conjugate was calculated using an area normalization method.

[3] = Naked antibody content of antibody-drug conjugates by hydrophobic interaction chromatography (HIC); format: physicochemical; settings: ADC with Her2 antibody
Method: The content of naked antibodies in the antibody-drug conjugate was tested using hydrophobic interaction chromatography (HIC). A Biocore HIC-Butyl chromatographic column (4.6×150 mm, 5 μm) was used. The mobile phase A was a 100 mM phosphate aqueous solution containing 2 M ammonium sulfate (pH 7.0), and the mobile phase B was a 100 mM phosphate aqueous solution (pH 7.0): isopropanol=80:20 (V/V). Samples of 50 μg and 10 μl were injected. The mobile phase A at the flow rate of 1 mL/min ran at 100% for 3 minutes. Within 3-25 minutes, the mobile phase B ran from […] to 100%, while the mobile phase B decreased to 0% at 25.1 and ran to 30 minutes. […] The naked antibody content of the antibody-drug conjugate was calculated using an area normalization method based on the retention time of a naked antibody peak located by the antibody of the antibody-drug conjugate.

[4] = Stability (placement) test of ADCs at 40° C. in dark for 14 days, DAR and polymer content; format: physicochemical
Method: as §2, §1
Stability testing method: The stability of the obtained ADCs was tested for 14 days. The ADCs were placed at 40° C. in dark. Sampling points were days 0, 7, and 14. The polymer content and DAR value of samples at different sampling points were tested according to the method in Experimental Example 1.

Row | SMILES | DAR [1] | Polymer content (%) [2] [%] | Naked antibody content (%) [3] [%] | DAR ([4]; Day 0, 40° C. in dark) | Polymer content (%) ([4]; Day 0, 40° C. in dark) | DAR ([4]; Day 7, 40° C. in dark) | Polymer content (%) ([4]; Day 7, 40° C. in dark) | DAR ([4]; Day 14, 40° C. in dark) | Polymer content (%) ([4]; Day 14, 40° C. in dark)
1 | CC[C@H](C)[C@@H]([C@@H](CC(=O)N1CCC[C@H]1[C@H](OC)[C@@H](C)C(=O)N[C@H](C)[C@@H](O)c1ccccc1)OC)N(C)C(=O)[C@@H](NC(=O)[C@H](C(C)C)N(C)C(=O)OCc1ccc(NC(=O)CNC(=O)[C@H](Cc2ccccc2)NC(=O)CNC(=O)CNC(=O)CCCCCN2C(=O)C=CC2=O)cc1)C(C)C [Comparative Example 1, reference compound] ({Hexanoyl(6-maleimido)}-GGFG[PABC][NMeV]V[Dil][Dolaproine]-X3) | 1.03 | 38.31 | 23.50 |  |  |  |  |  | 
2 | C=C1C[C@@H]2CC[C@@]34C[C@H]5OC6C(O[C@H]7CC[C@H](CC(=O)C[C@@H]8[C@@H](OC)[C@@H](C[C@H](O)CNC(=O)CNC(=O)[C@H](Cc9ccccc9)NC(=O)CNC(=O)CNC(=O)CCOCCOCCN(CCOCCOCCC(=O)NCC(=O)NCC(=O)N[C@@H](Cc9ccccc9)C(=O)NCC(=O)NCOCC(=O)N[C@H]9CCc%10c(C)c(F)cc%11nc%12c(c9c%10%11)Cn9c-%12cc%10c(c9=O)COC(=O)[C@]%10(O)CC)C(=O)CCCCCN9C(=O)C=CC9=O)O[C@H]8C[C@H]8O[C@@H](CC[C@@H]1O2)C[C@@H](C)C8=C)O[C@@H]7[C@@H]6O3)[C@H]5O4 [Comparative Example 3, reference compound] | 0.81 | 50.73 | 60.77 |  |  |  |  |  | 
3 | CCc1c2c(nc3ccc(O)cc13)-c1cc3c(c(=O)n1C2)COC(=O)[C@@]3(CC)OC(=O)N(C)CCN(C)C(=O)COCNC(=O)CNC(=O)[C@H](Cc1ccccc1)NC(=O)CNC(=O)CNC(=O)CCN1C(=O)C=CC1=O [Comparative Example 6, reference compound] | 2.76 | 13.74 | 9.06 |  |  |  |  |  | 
4 | C=C1C[C@@H]2CC[C@@]34C[C@H]5OC6C(O[C@H]7CC[C@H](CC(=O)C[C@@H]8[C@@H](OC)[C@@H](CC(O)CNC(=O)CNC(=O)[C@H](Cc9ccccc9)NC(=O)CNC(=O)CNC(=O)CCOCCOCCC(CCOCCOCCC(=O)NCC(=O)NCC(=O)N[C@@H](Cc9ccccc9)C(=O)NCC(=O)NCOCC(=O)N[C@H]9CCc%10c(C)c(F)cc%11nc%12c(c9c%10%11)Cn9c-%12cc%10c(c9=O)COC(=O)[C@]%10(O)CC)C9CCC(NC(=O)CCOCCOCCOCCOCCN%10C(=O)C=CC%10=O)CC9)O[C@H]8C[C@H]8O[C@@H](CC[C@@H]1O2)C[C@@H](C)C8=C)O[C@@H]7[C@@H]6O3)[C@H]5O4 (stereo partly shown) [Comparative Example 7, reference compound] | 0.86 | 60.31 | 53.82 |  |  |  |  |  | 
5 | CC[C@H](C)C([C@@H](CC(=O)N1CCC[C@@H]1[C@H](OC)[C@@H](C)C(=O)N[C@H](C)[C@@H](O)c1ccccc1)OC)N(C)C(=O)[C@@H](NC(=O)[C@H](C(C)C)N(C)C(=O)OCc1ccc(NC(=O)CNC(=O)[C@H](Cc2ccccc2)NC(=O)CNC(=O)CNC(=O)CCN2C(=O)C=CC2=O)cc1)C(C)C (stereo partly shown) [Comparative Example 8, reference compound] ({Propanoyl(3-maleimido)}-GGFG[PABC][NMeV]V[ξDil][X2]-X3) | 2.57 | 12.37 | 10.15 |  |  |  |  |  | 
6 | C=C1C[C@@H]2CC[C@@]34C[C@H]5OC6C(O[C@H]7CC[C@H](CC(=O)C[C@@H]8[C@@H](OC)[C@@H](C[C@H](O)CNC(=O)CNC(=O)[C@H](Cc9ccccc9)NC(=O)CNC(=O)CNC(=O)CCOCCOCCN(CCOCCOCCC(=O)NCC(=O)NCC(=O)N[C@@H](Cc9ccccc9)C(=O)NCC(=O)NCOCC(=O)N[C@H]9CCc%10c(C)c(F)cc%11nc%12c(c9c%10%11)Cn9c-%12cc%10c(c9=O)COC(=O)[C@]%10(O)CC)C9CCC(NC(=O)CCCCCN%10C(=O)C=CC%10=O)CC9)O[C@H]8C[C@H]8O[C@@H](CC[C@@H]1O2)C[C@@H](C)C8=C)O[C@@H]7[C@@H]6O3)[C@H]5O4 (stereo partly shown) [Comparative Example 9, reference compound] | 0.91 | 70.65 | 57.78 |  |  |  |  |  | 
7 | C=C1C[C@@H]2CC[C@@]34C[C@H]5OC6C(O[C@H]7CC[C@H](CC(=O)C[C@@H]8[C@@H](OC)[C@@H](C[C@H](O)CNC(=O)CNC(=O)[C@H](Cc9ccccc9)NC(=O)CNC(=O)CNC(=O)CCN9C(=O)C=CC9=O)O[C@H]8C[C@H]8O[C@@H](CC[C@@H]1O2)C[C@@H](C)C8=C)O[C@@H]7[C@@H]6O3)[C@H]5O4 [Comparative Example 12, reference compound] | 2.67 | 13.18 | 7.00 |  |  |  |  |  | 
8 | C=C1C[C@@H]2CC[C@@]34C[C@H]5OC6C(O[C@H]7CC[C@H](CC(=O)C[C@@H]8[C@@H](OC)[C@@H](C[C@H](O)CNC(=O)CNC(=O)[C@H](Cc9ccccc9)NC(=O)CNC(=O)CNC(=O)CCOCCOCCN(CCOCCOCCC(=O)NCC(=O)NCC(=O)N[C@@H](Cc9ccccc9)C(=O)NCC(=O)NCOCC(=O)N[C@H]9CCc%10c(C)c(F)cc%11nc%12c(c9c%10%11)Cn9c-%12cc%10c(c9=O)COC(=O)[C@]%10(O)CC)C9CCC(C(=O)CCOCCOCCN%10C(=O)C=CC%10=O)CC9)O[C@H]8C[C@H]8O[C@@H](CC[C@@H]1O2)C[C@@H](C)C8=C)O[C@@H]7[C@@H]6O3)[C@H]5O4 (stereo partly shown) [Comparative Example 13, reference compound] | 1.01 | 78.50 | 60.37 |  |  |  |  |  | 
9 | CC[C@@]1(O)C(=O)OCc2c1cc1n(c2=O)Cc2c-1nc1cc(F)c(C)c3c1c2[C@@H](NC(=O)COCNC(=O)CNC(=O)[C@H](Cc1ccccc1)NC(=O)CNC(=O)CNC(=O)CCCCCN1C(=O)C=CC1=O)CC3 [Comparative Example 14, reference compound] ({Hexanoyl(6-maleimido)}-GGFG[NHCH2OCH2CO]-Exatecan) | 8.00 |  |  |  |  |  |  |  | 
10 | C=C1C[C@@H]2CC[C@@]34C[C@H]5OC6C(O[C@H]7CC[C@H](CC(=O)C[C@@H]8[C@@H](OC)[C@@H](C[C@H](O)CNC(=O)CNC(=O)[C@H](Cc9ccccc9)NC(=O)CNC(=O)CNC(=O)CCOCCOCCN(CCOCCOCCC(=O)NCC(=O)NCC(=O)N[C@@H](Cc9ccccc9)C(=O)NCC(=O)NCOCC(=O)N[C@H]9CCc%10c(C)c(F)cc%11nc%12c(c9c%10%11)Cn9c-%12cc%10c(c9=O)COC(=O)[C@]%10(O)CC)C(=O)CN9CCOCCOCCOCCOCCN(C(=O)CCCCCC%10C(=O)C=CC%10=O)CCOCCOCCOCCOCC9)O[C@H]8C[C@H]8O[C@@H](CC[C@@H]1O2)C[C@@H](C)C8=C)O[C@@H]7[C@@H]6O3)[C@H]5O4 [Example 14] | 3.82 | 0.59 | 4.97 | 3.82 | 0.59 | 3.83 | 0.63 | 3.84 | 0.72
11 | C=C1C[C@@H]2CC[C@@]34C[C@H]5OC6C(O[C@H]7CC[C@H](CC(=O)C[C@@H]8[C@@H](OC)[C@@H](C[C@H](O)CNC(=O)CNC(=O)[C@H](Cc9ccccc9)NC(=O)CNC(=O)CNC(=O)CCOCCOCCN(CCOCCOCCC(=O)NCC(=O)NCC(=O)N[C@@H](Cc9ccccc9)C(=O)NCC(=O)NCOCC(=O)N[C@H]9CCc%10c(C)c(F)cc%11nc%12c(c9c%10%11)Cn9c-%12cc%10c(c9=O)COC(=O)[C@]%10(O)CC)C(=O)CN9CCOCCOCCOCCOCCN(C(=O)CCOCCOCCOCCOCCOCCOCCOCCOCCN%10C(=O)C=CC%10=O)CCOCCOCCOCCOCC9)O[C@H]8C[C@H]8O[C@@H](CC[C@@H]1O2)C[C@@H](C)C8=C)O[C@@H]7[C@@H]6O3)[C@H]5O4 [Example 15] | 4.07 | 1.20 | 3.63 | 4.07 | 1.20 | 4.07 | 1.21 | 4.11 | 1.27
